Measurements: patent US11618906B2, “Hydroxylation techniques” (HYPHA DISCOVERY LTD., priority 2018, dated 2023)
Substitutions are numbered along the chain they refer to. Numbers in names are those of the source.

B1: aluC09M37: cytochrome P450 aluC09 mutant T291W; amino acid sequence SEQ ID NO: 60 (protein, listed as Amycolatopsis lurida)
chain: MTDVEETTATLPLARKCPFSPPPEYERLRRESPVSRVGLPSGQTAWALTRLEDIREMLSSPHFSSDRQSPSFPLMVARQIRREDKPFRPSLIAMDPPEHSRARRDVVGEFTVKRMKALQPRIQQIVDEHLDALLAGPKPADLVQALSLPVPSLVICELLGVPYSDHEFFQSCSSRMLSREVTAEERMTAFEQLENYLDELVTKKEANATEDDLLGRQILKQRETGEADHGELVGLAFLLLIAGHETTANMISLGTVTLLENPDQLAKIKADPGKTLAAIEELLRVFTIAEWATSRFATADVEIGGTLIRAGEGVVGLSNAGNHDPDGFENPDTFDIERGARHHVAFGFGVHQCLGQNLARLELQIVFDTLFRRVPGLRIAVPVDELPFKHDSTIYGLHALPVTW
B2: aluC09M40: cytochrome P450 aluC09 mutant T291R; amino acid sequence SEQ ID NO: 72 (protein, listed as Amycolatopsis lurida)
chain: B1 chain with W291R

What was measured:
Format in all cases: biochemical
[1] = O-demethylation of indomethacin catalysed by cytochrome P450 aluC09 and mutants; conditions: % by UV peak area at 275 nm; 0.125 mg/ml substrate, 27° C., 16-20 hours
Procedure, shortened: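 Conversion was quantified by UPLC-UV/MS after acetonitrile extraction of 16-20 h, 27° C. shaken reactions. These contained 0.125 mg/ml substrate, mutant P450 with partner ferredoxin and reductase, 1 mM NADP plus 5 mM G6P and 2 U/ml G6PDH, in pH 7.4 phosphate with 5 mM MgCl2.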

[2] = Metabolism of BIRB796 by P450 aluC09 and mutants; conditions: percent of substrate being converted; 0.125 mg/ml, 27° C., 16-20 hours; [CYP] per enzyme as in Table 8
Procedure, shortened: (§1)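 Biotransformation: CYP aluC09 mutant + ferredoxin aluF03 + reductase SCF15A, 0.125 mg/ml substrate, KPi 50 mM pH 7.4, MgCl2 5 mM, G6P/NADP/G6PDH recycling; 27° C, 16-20 h shaking; MeCN quench, UPLC-MS conversion.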

[3] = Hydroxylation of aceclofenac catalysed by cytochrome P450 aluC09 and mutants; conditions: for Aceclofenac (Substrate) (1.80 mins) / Dihydroxy-Aceclofenac (1.42 mins) / Hydroxy-Aceclofenac (1) (1.64 min) / Hydroxy-Aceclofenac (2) (1.60 min): % by UV peak area at 275 nm, 0.125 mg/ml substrate, 27° C., 16-20 hours; for Hydroxylated Ratio 2:1: aceclofenac, ratio of UV peak areas at 275 nm
Procedure, shortened: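 Conversion was assessed by UPLC-MS (UV and MS detection) after acetonitrile extraction of reactions run 16-20 h at 27° C, shaking. Reactions contained substrate at 0.125 mg/ml, P450 mutant plus ferredoxin and reductase partners, 1 mM NADP with glucose-6-phosphate regeneration, in phosphate buffer pH 7.4.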

[4] = Hydroxylation / de-N-ethylation of napropamide catalysed by cytochrome P450 aluC09 and mutants; conditions: for Desethyl Napropamide (1.62 min) / Desethyl-hydroxy-Napropamide (1.41 min) / Hydroxy-Napropamide (1) (1.53 min) / Hydroxy-Napropamide (2), (1.52 min) / M-2Da (unidentified) (1.89 min) / Napropamide (substrate): % by UV peak area at 275 nm, 0.125 mg/ml substrate, 27° C., 16-20 hours; for Hydroxylated Ratio 2:1: napropamide, ratio of UV peak areas
Procedure, shortened: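 Conversion of napropamide (0.125 mg/ml) to hydroxylated and de-ethylated metabolites was measured by UPLC-MS after acetonitrile extraction. Reactions ran 16-20 h at 27° C in pH 7.4 potassium phosphate (50 mM) with 5 mM MgCl2, 1 mM NADP, 5 mM G6P and 2 UN/ml G6PDH. Enzymes were lyophilised P450 aluC09 variants, ferredoxin aluF03 and ferredoxin reductase SCF15A.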

[5] = Metabolism of 4-pyrrolidylacetophenone by P450 aluC09 and mutants; conditions: percent of substrate being converted; 0.125 mg/ml, 27° C., 16-20 hours; [CYP] per enzyme as in Table 8
Procedure, shortened: as §1

[6] = Metabolism of tofacitinib by P450 aluC09 and mutants; conditions: percent of substrate being converted; 0.125 mg/ml, 27° C., 16-20 hours; [CYP] per enzyme as in Table 8
Procedure, shortened: as §1

[7] = Metabolism of ruxolitinib by P450 aluC09 and mutants; conditions: percent of substrate being converted; 0.125 mg/ml, 27° C., 16-20 hours; [CYP] per enzyme as in Table 8
Procedure, shortened: as §1

[8] = Hydroxylation of flufenamic acid catalysed by cytochrome P450 aluC09 and mutants; conditions: for Flufenamic Acid (Substrate) 1.93 mins / Hydroxy-Flufenamic Acid (1) 1.69 mins / Hydroxy-Flufenamic Acid (2) 1.65 mins: % by UV peak area at 275 nm, 0.125 mg/ml substrate, 27° C., 16-20 hours; for Hydroxylated Ratio 1:2: flufenamic acid, ratio of UV peak areas at 275 nm
Procedure, shortened: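 Conversion measured by UPLC-MS (UV and MS) after acetonitrile extraction, following 16-20 h shaking at 27° C. Reaction: 0.125 mg/ml substrate, P450 mutant plus ferredoxin aluF03 and reductase SCF15A, 5 mM G6P, 1 mM NADP, 2 U/ml G6PDH, pH 7.4 phosphate with 5 mM MgCl2.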

[9] = Metabolism of buparvaquone by P450 aluC09 and mutants; conditions: percent of substrate being converted; 0.125 mg/ml, 27° C., 16-20 hours; [CYP] per enzyme as in Table 8
Procedure, shortened: as §1

[10] = Metabolism of tivantinib by P450 aluC09 and mutants; conditions: percent of substrate being converted; 0.125 mg/ml, 27° C., 16-20 hours; [CYP] per enzyme as in Table 8
Procedure, shortened: as §1

[11] = Metabolism of ritonavir by P450 aluC09 and mutants; conditions: percent of substrate being converted; 0.125 mg/ml, 27° C., 16-20 hours; [CYP] per enzyme as in Table 8
Procedure, shortened: as §1

[12] = Metabolism of celecoxib by P450 aluC09 and mutants; conditions: percent of substrate being converted; 0.125 mg/ml, 27° C., 16-20 hours; [CYP] per enzyme as in Table 8
Procedure, shortened: as §1

[13] = Hydroxylation of diclofenac catalysed by cytochrome P450 aluC09 and mutants (UPLC-PDA-MS); conditions: for 4′,5-dihydroxy-diclofenac 1.38 mins / 4′-hydroxy-diclofenac (1) 1.62 mins / 5-hydroxy-diclofenac (2) 1.58 mins / Diclofenac (Substrate) 1.81 mins: % by UV peak area at 275 nm, 0.125 mg/ml substrate, 27° C., 16-20 hours; for Hydroxylated Ratio hydroxy 1:hydroxy 2: diclofenac, ratio of UV peak areas at 275nm
Procedure, shortened: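 Conversion of diclofenac (0.125 mg/ml) to hydroxy metabolites measured by UPLC with UV and MS detection, identities confirmed by authentic samples. Reactions used P450 aluC09 variants with ferredoxin aluF03, reductase SCF15A and an NADP/G6P/G6PDH recycling system, pH 7.4 phosphate, 27° C, 16-20 hours.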

[14] = Metabolism of valsartan by P450 aluC09 and mutants; conditions: percent of substrate being converted; 0.125 mg/ml, 27° C., 16-20 hours; [CYP] per enzyme as in Table 8
Procedure, shortened: as §1

[15] = Metabolism of epothilone B by P450 aluC09 and mutants; conditions: percent of substrate being converted; 0.125 mg/ml, 27° C., 16-20 hours; [CYP] per enzyme as in Table 8
Procedure, shortened: as §1

[16] = Metabolism of bosentan by P450 aluC09 and mutants; conditions: percent of substrate being converted; 0.125 mg/ml, 27° C., 16-20 hours; [CYP] per enzyme as in Table 8
Procedure, shortened: as §1

Row | Molecule | Indomethacin (1.74 mins) [1] | O-demethyl-Indomethacin (1.52 mins) [1] | % conversions (avg) BIRB796 [2] | Aceclofenac (Substrate) (1.80 mins) [3] | Dihydroxy-Aceclofenac (1.42 mins) [3] | Hydroxy-Aceclofenac (1) (1.64 min) [3] | Hydroxy-Aceclofenac (2) (1.60 min) [3] | Hydroxylated Ratio 2:1 [3] | Desethyl Napropamide (1.62 min) [4] | Desethyl-hydroxy-Napropamide (1.41 min) [4] | Hydroxy-Napropamide (1) (1.53 min) [4] | Hydroxy-Napropamide (2), (1.52 min) [4] | M-2Da (unidentified) (1.89 min) [4] | Napropamide (substrate) [4] | Hydroxylated Ratio 2:1 [4] | % conversions (avg) 4-pyrrolidylacetophenone [5] | % conversions (avg) Tofacitinib [6] | % conversions (avg) Ruxolitinib [7] | Flufenamic Acid (Substrate) 1.93 mins [8] | Hydroxy-Flufenamic Acid (1) 1.69 mins [8] | also measured
1 | B1 | 89.0% | 11.0% | 10% | 4.2% | 56.0% | 4.5% | 35.3% | 7.8 | 40.1% | 3.3% | 1.6% | 3.3% | 6.0% | 47.3% | 2.1 | 7.3% | 0.9% | 34.2% | 91.3% | 6.4% | Hydroxy-Flufenamic Acid (2) 1.65 mins [8]: 2.2%; Hydroxylated Ratio 1:2 [8]: 2.9; % conversions (avg) Buparvaquone [9]: 10.5%; % conversions (avg) Tivantinib [10]: 31%; % conversions (avg) Ritonavir [11]: 64.1%; % conversions (avg) Celecoxib [12]: 7.2%; 4′,5-dihydroxy-diclofenac 1.38 mins [13]: 1.9%; 4′-hydroxy-diclofenac (1) 1.62 mins [13]: 31.4%; 5-hydroxy-diclofenac (2) 1.58 mins [13]: 15.9%; Diclofenac (Substrate) 1.81 mins [13]: 51.8%; Hydroxylated Ratio hydroxy 1:hydroxy 2 [13]: 2.0; % conversions (avg) Valsartan [14]: 41%; % conversions (avg) Epothilone B [15]: 50.2%; % conversions (avg) Bosentan [16]: 98.6%
2 | B2 | 88.8% | 11.2% | 0% | 46.3% | 12.7% | 19.7% | 21.4% | 1.1 | 12.9% | 0.4% | 2.3% | 1.8% | 2.4% | 80.6% | 0.8 | 1.7% | 0.4% | 5.2% | 94.8% | 4.4% | Hydroxy-Flufenamic Acid (2) 1.65 mins [8]: 0.9%; Hydroxylated Ratio 1:2 [8]: 4.9; % conversions (avg) Buparvaquone [9]: 0%; % conversions (avg) Tivantinib [10]: 5.3%; % conversions (avg) Ritonavir [11]: 53.4%; % conversions (avg) Celecoxib [12]: 0%; 4′,5-dihydroxy-diclofenac 1.38 mins [13]: 2.2%; 4′-hydroxy-diclofenac (1) 1.62 mins [13]: 35.7%; 5-hydroxy-diclofenac (2) 1.58 mins [13]: 14.3%; Diclofenac (Substrate) 1.81 mins [13]: 48.8%; Hydroxylated Ratio hydroxy 1:hydroxy 2 [13]: 2.5; % conversions (avg) Valsartan [14]: 7.3%; % conversions (avg) Epothilone B [15]: 2.4%; % conversions (avg) Bosentan [16]: 76.5%
